Where only a bound is given, the exact number is not on record here.

For orientation: Kd means a measure of binding affinity in units of concentration. The low end stands for a tighter complex, the high end for a looser complex.

Assay [1] addresses putative VISTA-receptor on murine T-cells (2.10 T-cell clone; primary CD4+ T-cells) (mouse). Briefly: cell-based or functional assay.
Assay [2] addresses T1, hICOS-Fc (R&D Systems) (human, UniProt Q9Y6W8 21-141, limits assumed).
T1 construct: Bought from R&D Systems; also called human ICOS; not shown: Fc part of a bought fusion protein; not described
T1 sequence (looked up): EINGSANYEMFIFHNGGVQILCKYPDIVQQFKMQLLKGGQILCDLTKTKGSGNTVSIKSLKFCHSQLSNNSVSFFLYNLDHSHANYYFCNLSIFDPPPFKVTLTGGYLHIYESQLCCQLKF
Briefly: SPR single cycle kinetics (Biacore T200), hICOS-Fc immobilized on a CM5 chip, 1:1 model. (In general: SPR reads the build-up and loss of mass on a sensor chip optically.)

In assay [3] the target is T1, hICOS-Fc (R&D Systems). As to the kind of experiment: SPR single cycle kinetics (Biacore T200), hICOS-Fc immobilized on a CM5 chip.

On to “murine VISTA.COMP pentamer, histidine tagged (VISTA.COMP.his) (ligand)”, for which, in assay [1], the anti-CD3-induced 2.10 cell proliferation (3H-thymidine) came out at 1 µg/mL.
Same read-out and setting: in the case of “VISTA-Fc (murine VISTA extracellular domain fused to the human IgG-1 Fc region; dimeric) (Fc fusion)” it was above 30 µg/mL.

B1: hICOSL-Fc (R&D Systems), dimeric human ICOS-L ECD Fc fusion (Fc fusion, not shown: a dimerising Fc or GST; small tags and cut ends)
chain: DTQEKEVRAMVGSDVELSCACPEGSRFDLNDVYVYWQTSESKTVVTYHIPQNSSLENVDSRYRNRALMSPAGMLRGDFSLRLFNVTPQDEQKFHCLVLSQSLGFQEVLSVEVTLHVAANFSVPVVSAPHSPSQDELTFTCTSINGYPRPNVYWINKTDNSLLDQALQNDTVFLNMRGLYDVVSVLRIARTPSVNIGCCIENVLLQQNLTVGSQTGNDIGERDKITENPVSTGEKNAATWS
modifications: Fc-mediated dimer (two copies); the Fc is left out.
In the case of B1, the dissociation constant (Kd) with hICOS-Fc (R&D Systems) [2] is 2.9 nM.

B2: human ICOS-L.COMP pentamer (human ICOS-L extracellular domain fused to the COMP pentamerization domain, C-terminal histidine tag) (ligand)
chain: DTQEKEVRAMVGSDVELSCACPEGSRFDLNDVYVYWQTSESKTVVTYHIPQNSSLENVDSRYRNRALMSPAGMLRGDFSLRLFNVTPQDEQKFHCLVLSQSLGFQEVLSVEVTLHVAANFSVPVVSAPHSPSQDELTFTCTSINGYPRPNVYWINKTDNSLLDQALQNDTVFLNMRGLYDVVSVLRIARTPSVNIGCCIENVLLQQNLTVGSQTGNDIGERDKITENPVSTGEKNAATWSDLGPQMLRELQETNAALQDVRELLRQQVREITFLKNTVMECDACG
In the case of B2, in the assay with hICOS-Fc (R&D Systems) [3], the “fold stronger KD than hICOSL-Fc” value was around 3 fold. This molecule displayed a dissociation constant (Kd) with hICOS-Fc (R&D Systems) [2] of 0.9 nM.

The values above are taken from patent publication US20220041685A1 (SUNNYBROOK RESEARCH INSTITUTE, published 2022).
